Source: paper PMC3828344

Test system: vesicular stomatitis virus particle (Vesicular stomatitis virus)
Experiment: electrochemical aptasensor (SWV)

In the case of “GCTAGCGAATTCCGTACGAAGGGCGAATTCCACATTGGGCTGCAGCCCGGGGGATCC [thiolated AG3 (aptasensor)]”, the binding signal (% of current decrease) is reported as 9.1.
